This note sets out measurements from PMC12191217, “Aptamer Development for SARS-CoV-2 and Omicron Variants Using the Spike Protein Receptor Binding Domain as a Potential Diagnostic Tool and Therapeutic Agent”.

B1: Aptamer 11 (structured_RNA)
RNA: GAUUUUAGUCAUAGUCAGUUAGGUGGUUUACAUCUACUGA
B2: Aptamer 62 (structured_RNA)
RNA: GAUGGUAAUGCUGCUAUCAGCGAUUAUGACUACUAUCGUU
B3: Aptamer 22 (structured_RNA)
RNA: GCUGGUGCUGCAGCUUAUUAUGUGGGUUAUCUUCAACCUA
B4: Aptamer 23 (structured_RNA)
RNA: CACUACCAAGAGUGUGUUAGAGGUACAACAGUACUUUUAA
B5: Aptamer 40 (structured_RNA)
RNA: GUUUCGGAAGAGACAGGUACGUUAAUAGUUAAUAGCGUAC

In this data set the target is SARS-CoV-2 spike RBD (Wuhan-Hu-1), His-tagged (SARS-CoV-2 (Wuhan-Hu-1 strain), UniProt P0DTC2 319-541). The experiment in a line: BLI; 3 mM MgCl2; 10 mM phosphate pH 7.4, 137 mM NaCl, 2.7 mM KCl, 3 mM MgCl2, 0.01% BSA, 0.002% Tween 20, 25 °C; aptamer 175-1400 nM, n=2. The following applies: protein: commercial; tags: His. For orientation: In BLI a coated tip is dipped into the sample, and binding shifts an interference pattern.
Take B1: the Kd (in general, the constant that tells how readily two partners part at equilibrium) came to 425 ± 146 nM.

In turn, B2 gave a Kd of 285 ± 141 nM.

With B3, the Kd was 5450 ± 1700 nM. This Kd is about 19-fold higher than that of the molecule before.

For B4, the Kd was found to be 29300 ± 10400 nM. Against the preceding molecule, the Kd is about 5.4-fold higher.

B5 gave a Kd of 571 ± 173 nM.
